Experiment [1] addresses native human MSLN expressed on the cell surface (N87 / NCI-N87 tumor cells) (human) (UniProt Q13421). Description: KinExA, native hu MSLN on cells.
Experiment [2] addresses recombinant human soluble MSLN (rHuMSLN sol.) (human) (UniProt Q13421). Description: published value quoted in the Biacore column; the sheet does not name its source.
Experiment [3] has the same target. Nature of the experiment: Biacore, soluble human MSLN.

pKd: −log10 of the molar value.

Here are results for one substance from patent publication US20210380714A1.

Chain of recombinant human soluble MSLN (rHuMSLN sol.) (human) (Q13421 296-606 limits assumed): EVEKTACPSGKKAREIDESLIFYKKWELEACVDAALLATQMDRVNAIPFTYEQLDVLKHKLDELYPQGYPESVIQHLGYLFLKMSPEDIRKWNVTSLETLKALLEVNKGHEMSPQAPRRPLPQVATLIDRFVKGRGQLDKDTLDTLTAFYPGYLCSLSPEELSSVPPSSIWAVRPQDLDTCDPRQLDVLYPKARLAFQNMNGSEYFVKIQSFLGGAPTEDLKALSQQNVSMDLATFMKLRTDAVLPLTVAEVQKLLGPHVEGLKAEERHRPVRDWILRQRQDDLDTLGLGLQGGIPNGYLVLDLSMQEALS
Chain of native human MSLN expressed on the cell surface (N87 / NCI-N87 tumor cells) (human) (Q13421 296-606 limits assumed): as above

Usually pKd stands for the Kd on a negative log10 scale, so that one unit is a factor of ten. As to MORAb-009 (antibody), the pKd was 11.66 in experiment [1], 8.82 in experiment [2] and 9.80 in experiment [3].
